Data published in the supplement of paper PMC12042874.
± gives the uncertainty stated by the source.

Test: amyloid nucleation score (Sup35N fusion, yeast selection) (log enrichment); library NNK1; higher = more nucleation; inactive = no reads after selection
In short: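 The nucleation score, computed with DiMSum, is the log enrichment of output over input reads, centred on the mode score of non-aggregating sequences. Sequences with under 100 input reads were dropped. Reads were generated by Illumina sequencing of plasmid inserts from psi-negative yeast with Sup35N fused to peptides of 20 random codons, induced with 100 μM copper sulfate for 24 hours and grown 7 days at 30°C on medium lacking adenine and uracil.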

In order of falling amyloid nucleation score:
1. MDCTFINGFRVFNLSNSR  7.967 ± 0.059
2. MNIVIHIPNMRMAAKD  7.17 ± 0.08
3. MPRLTDRDKLCDFVNLQFIF  6.7 ± 0.073
4. MNVFVSRNYVYLKYEFRSLA  6.642 ± 0.051
5. NCSGSRLFLMSLSL  6.52 ± 0.066
6. MVSIWINFT  6.38 ± 0.08
7. MLVHYVAFVFNMSTRCNCSE  6.253 ± 0.046
8. MFYLTFYNLRIND  6.01 ± 0.061
9. NCCGSLETSSVSVVYLMWGW  5.917 ± 0.05
10. LYMICGVYCLDSGIRTMRTF  5.51 ± 0.067
11. NCVRSCISMQVYCTPAVVMY  5.483 ± 0.053
12. LWFINVLNK  5.103 ± 0.049
13. LYSLVGCWTLCLNVSCFEWL  4.93 ± 0.064
14. MMGGSRWTCCYTFDFWSCWD  4.27 ± 0.1
15. MVAIMQISMGSAVFLYAR  4.24 ± 0.097
16. MRFKFMALGCEVLILGGFGS  3.72 ± 0.16
17. LYCMGVLPSLLAISMVWVRG  2.94 ± 0.2
18. MFGFHRNRDDHSCIHFTFK  2.58 ± 0.15
19. NCSGCIWVRMCLNHFGVCTD  2.38 ± 0.16
20. LWLTFFSQ  2.35 ± 0.11
21. MLVLRMYYTRNS  2.24 ± 0.23
22. MSIQCTSALGPL  2.13 ± 0.35
23. MYVPQSINSYTQWEPKHIRW  1.64 ± 0.43
24. NEWKSLSINEMRGSMTINNS  1.44 ± 0.12
25. MYGGKCSNGPCMYSVGIGTW  1.39 ± 0.34
26. NACIQVTGRCCIACVVEFWY  1.32 ± 0.38
27. MSMYYISSCIISLSQVGMYV  1.26 ± 0.38
28. LYHSTLYLNVCYTYHSAGGN  1.24 ± 0.21
29. MNFDCFPNSL  1.22 ± 0.35
30. LWVNTDSSLECHRWLRVIV  1.2 ± 0.37
31. MGHVLGVYKSP  1.2 ± 0.46
32. MPPMYGRGRPMNKIGVWDYA  1.14 ± 0.51
33. NDTQLRISACYALRDNGEWV  1.12 ± 0.66
34. NFELEHLEICSDVCFGCAAE  1.12 ± 0.65
35. MWSYNLYNLVVTS  1.1 ± 0.28
36. MHSPRGLE  1.07 ± 0.79
37. MVRYLGYYLPNWRSFHWHRL  0.951 ± 0.44
38. MGYRDNLSF  0.915 ± 0.53
39. MVMMFTTDSMQAN  0.906 ± 0.52
40. MLTPDLSSDLDILRPTSPLT  0.879 ± 0.51
41. LYVHSFFRFMWSDKVLLSKT  0.856 ± 0.56
42. MGLGVRVEKSSCACG  0.841 ± 0.37
43. MLTNVSNICYWNDVVGDSLA  0.838 ± 0.28
44. MFNHV  0.807 ± 1
45. MWHGSVTMGGIRGTRDSVHQ  0.792 ± 0.53
46. MRQWSGQG  0.758 ± 1
47. NEGIMPLVNHSKQEEPGVYR  0.753 ± 0.57
48. MKIVNVHAWATQLARGDICE  0.745 ± 0.83
49. MRACRYANLNVSRNMWGICG  0.743 ± 0.48
50. LYRVTYSNACMFGVVG  0.695 ± 0.54
51. LYICPHYDYWLCEQYMHWSP  0.69 ± 0.35
52. MLVYYNDKSVFHRFVLLRN  0.644 ± 0.85
53. MLQCYLLFARYLLRNLSWGW  0.59 ± 0.62
54. MKRTFRTLF  0.57 ± 0.41
55. MHGSGLHSDSLGPTV  0.565 ± 0.69
56. NCTARMKVGFAGFSFTLWIA  0.533 ± 0.56
57. MAICSGMTSWAVLLEVWN  0.504 ± 0.57
58. MEISLVINWSIIITKVCVCV  0.497 ± 0.33
59. MWTRHCN  0.483 ± 0.55
60. NCSLILTTKRNRWYLQRLRF  0.467 ± 0.33
61. NDLYVGLDTYYIRHNLTRWF  0.447 ± 0.2
62. MPLLYSVSHCWFKPAFGWAW  0.442 ± 0.69
63. LYLVILVELMVYSKWCIKSP  0.414 ± 0.36
64. NAVINQ  0.388 ± 0.73
65. MRNIVWCCSVVLCCLFGVLF  0.385 ± 0.69
66. MMLSLISVQV  0.379 ± 0.68
67. MVRNKQKLLKGQ  0.375 ± 0.49
68. MGFVGPENAKDYCSRGV  0.357 ± 0.5
69. MGTDRMCHS  0.328 ± 0.97
70. LYGPQSPGRSPVSTFGRGRF  0.321 ± 0.4
71. MRDTFFLDRMQITLCSW  0.306 ± 0.33
72. MYVSDCCSCICMVVDTRSIF  0.292 ± 0.39
73. MERTWFG  0.276 ± 0.3
74. MDSCFVLAHVAGNRMVLWNA  0.268 ± 0.43
75. MCRLTPRIITDY  0.244 ± 0.28
76. MFVNPALLLFL  0.226 ± 1.6
77. MLIRVISDVLPG  0.224 ± 0.5
78. LYRFNF  0.223 ± 0.45
79. MACRSPEGLEYMKN  0.209 ± 0.46
80. MKRVWSYIAGKNARNLKGRL  0.174 ± 0.41
81. NADMFRTVLMMMFPAFRLIR  0.172 ± 0.22
82. MLPLCMSAIRRVKLRSPSEY  0.151 ± 0.52
83. MKRDSFPLFNFCLA  0.137 ± 0.5
84. MVAIRWYRMGLDDMNSGTVN  0.094 ± 0.27
85. NCKNVYCFKYASGIGERAFY  0.091 ± 0.42
86. MLARKRMLNLLLRGWAYSWT  0.09 ± 0.49
87. MHWLRGVRS  0.082 ± 0.47
88. MTTRIFSLKIA  0.066 ± 0.81
89. LYLFDPTNQKRFEVWKWK  0.063 ± 0.49
90. MCSLYFLYGAGVSCGSVLNV  0.063 ± 0.4
91. MNTWDMSLIPWSLARWVNTA  0.063 ± 0.4
92. MIFSHETSRVIGDPWGPWN  0.056 ± 0.88
93. MLSTTLALLTERSFGAY  0.021 ± 0.39
94. LYFVSSAFSSQS  0.014 ± 0.27
95. MEYTYVQTSKYKHERNATWC  0.008 ± 0.97
96. NACRCVYSGRVSAYDVRVRN  0 ± 0.6
97. MSLLALWCLSVRCTVVLVRT  -0.003 ± 0.48
98. MKLRVDLFSYGRCLCEQ  -0.021 ± 0.25
99. LWGIMYTM  -0.026 ± 0.93
100. MSVNSRNMNKYLFWNKL  -0.029 ± 0.3
101. MSRIEGHRLDVLSRHFR  -0.046 ± 0.32
102. MWVLRPCCHFAVCRGIKVSR  -0.046 ± 0.53
103. MNLRETSAFSPCNEVL  -0.063 ± 1.4
104. LWTLVQTASSTWALLTGTTN  -0.066 ± 0.65
105. MMSSFDVWDS  -0.077 ± 0.73
106. MAGYL  -0.078 ± 0.48
107. MSNMHNYLRLIWDTVCIQF  -0.083 ± 0.77
108. LWFDYFPF  -0.096 ± 0.43
109. MQVVKIGKLFG  -0.112 ± 0.39
110. NCPFEW  -0.116 ± 0.55
111. MQWWVGYAIITEN  -0.119 ± 0.56
112. MTWIENKPLHNVRCRGIIAV  -0.12 ± 0.43
113. MWGMF  -0.132 ± 0.35
114. MEGRVMGKRVAVY  -0.155 ± 0.59
115. MLTECSRFLNVFGVGEHEVN  -0.162 ± 0.58
116. NACDCQPMFVMQWYRRVEPR  -0.167 ± 0.53
117. LWNLVLKCD  -0.215 ± 0.29
118. NDSDARYHVFRK  -0.256 ± 1.2
119. MSDVCNVMKKVMQGTCFCGH  -0.293 ± 0.27
120. NCGVYIVYQKRLQAVGYCAN  -0.312 ± 0.3
121. MPLKVSSMDLGRIKE  -0.333 ± 0.41
122. MRNVTFTGLMLDSDWNVH  -0.338 ± 1.1
123. MVGYGECIDMWPMLVKVDVV  -0.378 ± 0.69
124. MKSALKALTEHSPQSYDWCR  -0.4 ± 0.61
125. LYFVLPTNKLPDRSY  -0.403 ± 0.84
126. LWSVKEGWGRPEAGHRQLWG  -0.413 ± 0.52
127. LYTNSLRF  -0.419 ± 0.64
128. NEHAENDVTFQGNEDICVVM  -0.419 ± 0.34
129. MGGLRVYRPCVER  -0.437 ± 0.71
130. MRTPGCVMF  -0.44 ± 0.93
131. LYEAMPKTLAGIWSTPNMCV  -0.507 ± 0.93
132. MSYIQRMGVYLTITGLRGMK  -0.527 ± 1
133. MFYSFNDVGWFAFRFSEIGV  -0.539 ± 0.41
134. LWDIFFRSLSVLAYNIKMFS  -0.552 ± 1
135. NCDKMVNMLPLRFSDIALSM  -0.566 ± 0.5
136. LYDFINYG  -0.592 ± 1.2
137. MDSTDWRVLLGRSMGWS  -0.596 ± 0.47
138. NEGEVIAELIIFVNPWVTI  -0.599 ± 0.43
139. MVMNTKCE  -0.643 ± 0.55
140. MMPSECMEFLMCLWFGSGSD  -0.722 ± 0.55
141. NCVQARFDERCVRGLGCKFY  -0.724 ± 0.64
142. MDCWENVIRQKASSSGWLEN  -0.725 ± 0.52
143. LWHFWGYGGALP  -0.738 ± 0.75
144. MTSLDFNYGISKLESSFYMY  -0.739 ± 0.29
145. MVIRYFCQESA  -0.799 ± 1.1
146. LYSCMRVVATATVSGGLVIE  -0.843 ± 0.69
147. MSKYALNLAMVDRGLSKDQN  -0.898 ± 1.6
148. MPEILSVRSF  -0.943 ± 0.32
149. MSCYLQAFDITTTTNDASWW  -0.95 ± 1.6
150. LYTIRTYPSLLKCDSPLN  -1.01 ± 0.78
151. LWSLVCSELCWDVLFNALPG  -1.03 ± 0.71
152. MRYVMTFFFHSYKA  -1.15 ± 0.91
153. MYPRSCIHVMCFTVVKASVG  -1.26 ± 0.74
154. LYRRGTRPPG  -1.28 ± 2.4
155. MEPLVTQCRHKG  -1.31 ± 1.1
156. MVLTFAV  -1.36 ± 2.4
157. LYKKICKALSYIMDLTRVLP  -1.54 ± 2.1
158. MFIASGV  -1.65 ± 0.84
159. MVSHKDQRIGPLLASVAHVR  -1.69 ± 1.3
160. MGAWINYIAPTRYYLMDFFW  -1.7 ± 2.4
161. LYHGVYPKFLYKLVVESSLS  -1.79 ± 1.7
162. MDKLASLLSSKGCAIKGLRS  -2.19 ± 1.3

With LWRRWNCFT the amyloid nucleation score was “inactive”.
In the case of MCNDGSYYAILACGVSLRVL, the amyloid nucleation score is reported as “inactive”.
For MCPTLVLSA, the amyloid nucleation score was “inactive”.
With MDLAYMFKLCIGVESM the amyloid nucleation score was “inactive”.
For MGRLRARRSLVLVA, the amyloid nucleation score was “inactive”.
With MLDFTIQGLKSCWISVSLFF the amyloid nucleation score was “inactive”.
With MNKQAFNGRM the amyloid nucleation score was “inactive”.
In the case of MSCTVHLGLFMESTNHYCMC, the amyloid nucleation score is reported as “inactive”.
With MSLDAFV the amyloid nucleation score was “inactive”.
With MWVCSYA the amyloid nucleation score was “inactive”.
With NARFWVRCIDVHFGVKAGDG the amyloid nucleation score was “inactive”.
In the case of NESEFLFSKAHRMVVIP, the amyloid nucleation score is reported as “inactive”.
